Measured values published in patent US20020032314A1.
Ends that are not written are not given here. * marks the point of attachment. 125I = [125I]*

Molecular target: NTP receptor on human neutrophils (human)
Assay: saturation curve and Scatchard-like analysis of 125I-NTP-Y binding to human neutrophils

NTP receptors per cell (receptors per cell): 3000
B1: 125I-labeled NTP-Y (human Neutrophil Targeting Peptide synthesized with an N-terminal tyrosine) (peptide)
peptide: Y(125I)RRPESKATNATLDPR
